Assay results reported in article PMC7289602, “Measuring ligand-cell surface receptor affinities with axial line-scanning fluorescence correlation spectroscopy” (eLife, 2020).
Blank lines part the entries; values can stand above or below the molecule they belong to.

Assays:
[1] = target: LRP6-mCherry, stably expressed in NCI-H1703 cells (human) (UniProt O75581); test: dual-color axial line-scanning fluorescence cross-correlation spectroscopy (axial lsFCS); two receptors in the plasma membrane of live NCI-H1703 cells stably expressing LRP6-mCherry and transiently xKremen2-eGFP; fractions that co-diffuse from the ratios of cross- and autocorrelation amplitudes
Chain of LRP6-mCherry, stably expressed in NCI-H1703 cells (human) (O75581 20-1613): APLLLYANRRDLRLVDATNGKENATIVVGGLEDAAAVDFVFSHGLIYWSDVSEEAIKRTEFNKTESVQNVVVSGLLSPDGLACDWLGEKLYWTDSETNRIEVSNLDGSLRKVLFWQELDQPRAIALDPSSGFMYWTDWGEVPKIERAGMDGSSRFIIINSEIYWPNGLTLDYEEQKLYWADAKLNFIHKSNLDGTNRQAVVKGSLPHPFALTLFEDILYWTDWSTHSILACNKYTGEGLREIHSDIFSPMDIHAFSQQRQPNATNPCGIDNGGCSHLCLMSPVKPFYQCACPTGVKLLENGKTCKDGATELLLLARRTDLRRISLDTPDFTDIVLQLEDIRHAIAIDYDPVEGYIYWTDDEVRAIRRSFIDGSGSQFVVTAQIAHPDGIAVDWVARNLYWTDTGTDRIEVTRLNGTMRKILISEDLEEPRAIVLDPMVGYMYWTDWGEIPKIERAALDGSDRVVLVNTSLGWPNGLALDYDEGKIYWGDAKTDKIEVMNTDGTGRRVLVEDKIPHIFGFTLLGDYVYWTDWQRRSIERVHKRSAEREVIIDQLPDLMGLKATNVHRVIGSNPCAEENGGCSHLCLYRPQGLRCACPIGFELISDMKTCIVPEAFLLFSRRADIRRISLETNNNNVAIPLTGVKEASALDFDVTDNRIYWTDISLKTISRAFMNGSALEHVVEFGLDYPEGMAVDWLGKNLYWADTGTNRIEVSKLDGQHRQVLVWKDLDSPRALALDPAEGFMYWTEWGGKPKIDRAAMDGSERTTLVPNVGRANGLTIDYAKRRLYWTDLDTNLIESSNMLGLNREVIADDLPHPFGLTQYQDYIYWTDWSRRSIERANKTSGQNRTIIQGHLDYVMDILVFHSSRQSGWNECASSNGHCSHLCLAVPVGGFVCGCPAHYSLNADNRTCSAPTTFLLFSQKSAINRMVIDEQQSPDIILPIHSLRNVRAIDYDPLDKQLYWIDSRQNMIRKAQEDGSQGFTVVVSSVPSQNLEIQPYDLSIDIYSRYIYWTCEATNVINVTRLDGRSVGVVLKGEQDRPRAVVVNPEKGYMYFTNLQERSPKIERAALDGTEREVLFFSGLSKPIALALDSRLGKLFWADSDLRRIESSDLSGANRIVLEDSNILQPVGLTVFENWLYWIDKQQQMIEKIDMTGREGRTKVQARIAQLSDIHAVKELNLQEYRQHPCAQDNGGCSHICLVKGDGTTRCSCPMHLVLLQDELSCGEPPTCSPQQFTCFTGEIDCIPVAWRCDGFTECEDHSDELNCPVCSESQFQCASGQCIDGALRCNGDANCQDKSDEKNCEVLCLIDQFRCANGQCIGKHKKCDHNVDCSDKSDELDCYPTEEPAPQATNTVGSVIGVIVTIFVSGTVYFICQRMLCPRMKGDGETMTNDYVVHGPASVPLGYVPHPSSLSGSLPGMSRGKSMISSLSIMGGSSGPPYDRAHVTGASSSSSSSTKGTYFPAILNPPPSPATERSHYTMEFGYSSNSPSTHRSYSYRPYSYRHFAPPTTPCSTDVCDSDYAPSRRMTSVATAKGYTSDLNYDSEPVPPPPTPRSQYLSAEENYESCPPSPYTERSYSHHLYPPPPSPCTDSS

[2] = target: T1, LRP6-mCherry, transiently expressed in NCI-H1703 cells (human, UniProt O75581 20-1613); test: dual-color axial line-scanning fluorescence cross-correlation spectroscopy (axial lsFCS); live NCI-H1703 cells transiently expressing the receptor (xKremen2-mCherry without or with unlabeled LRP6; apparent affinity with LRP6), ligand in conditioned medium at varied concentrations, 37°C, 5% CO2, 60 s scans, fit of Γ(CL) with Equation 5; details: partners not purified
T1 construct: lipoprotein-receptor related protein 6 (LRP6), human; plasmid pCS2+hLRP6-mCherry (Dörlich et al., 2015); Same construct as m4 in another cell line; receptor density 140 ± 80 per µm^2; also called hLRP6-mCherry; source: NCI-H1703, transiently transfected (pCS2+hLRP6-mCherry, with MesD 1:6), on live cells; not shown: mCherry, C-terminal, kept
T1 sequence (O75581 20-1613): as above

[3] = target: T2, LRP6-mCherry, stably expressed in NCI-H1703 cells (human, UniProt O75581 20-1613); test: dual-color axial line-scanning fluorescence cross-correlation spectroscopy (axial lsFCS); live NCI-H1703 cells stably expressing LRP6-mCherry, ligand in conditioned medium at varied concentrations, 37°C, 5% CO2, 60 s scans, with background and photobleaching correction, fit of Γ(CL) with Equation 5; details: partners not purified
T2 construct: lipoprotein-receptor related protein 6 (LRP6), human; the ORF of the hLRP6-mCherry fusion inserted into pEF1a-IRES-Neo; Same fusion ORF as m4 and m5; receptor density 45 ± 23 per µm^2; also called hLRP6-mCherry; exogenous LRP6-mCherry; source: NCI-H1703, stably transfected clonal line (pEF1a-hLRP6-mCherry-IRES-Neo, G418 selection), on live cells; not shown: mCherry, C-terminal, kept
T2 sequence (O75581 20-1613): as above

[4] = target: T2, LRP6-mCherry, stably expressed in …; test: dual-color axial line-scanning fluorescence cross-correlation spectroscopy (axial lsFCS); the same data as a3 (NCI-H1703 stably expressing LRP6-mCherry), analysed without prior background correction of the intensity time traces; details: partners not purified
[5] = target: xKremen2-mCherry co-expressed with unlabeled LRP6 (Xenopus laevis | human) (UniProt O75581); test: dual-color axial line-scanning fluorescence cross-correlation spectroscopy (axial lsFCS); live NCI-H1703 cells transiently expressing the receptor (xKremen2-mCherry without or with unlabeled LRP6; apparent affinity with LRP6), ligand in conditioned medium at varied concentrations, 37°C, 5% CO2, 60 s scans, fit of Γ(CL) with Equation 5
[6] = target: (Xenopus laevis) xKremen2-mCherry (Xenopus laevis); test: as above
[7] = target: T3, LRP6-mCherry, transiently expressed in HEK293T cells (human, UniProt O75581 20-1613); test: time-lapse spinning disk confocal imaging of ligand fluorescence on the cell membrane; association: HEK293T cells expressing LRP6-mCherry, conditioned medium with DKK1-eGFP at different concentrations, 37°C, 5% CO2, frames every 100 s for 1 hr, linear regression of apparent rate coefficients; the authors call such measurements on individual cells highly unreliable; details: partners not purified
T3 construct: lipoprotein-receptor related protein 6 (LRP6), human; plasmid pCS2+hLRP6-mCherry (Dörlich et al., 2015); Receptor density 370 ± 150 or 1080 ± 470 per µm^2 in the two series; MesD was co-transfected; also called hLRP6-mCherry; lipoprotein-receptor related protein 6; source: HEK293T, transiently transfected (pCS2+hLRP6-mCherry, with MesD 1:6), on live cells; not shown: mCherry, C-terminal, kept
T3 sequence (O75581 20-1613): as above

[8] = target: T4, endogenously tagged LRP6-tdTomato in CRISPR/Cas9 edited NCI-H1703 cells (human (endogenous in NCI-H1703), UniProt O75581 20-1613); test: dual-color axial line-scanning fluorescence cross-correlation spectroscopy (axial lsFCS); live CRISPR/Cas9 edited NCI-H1703 cells with endogenously tagged LRP6, ligand in conditioned medium at varied concentrations, 37°C, 5% CO2, 60 s scans, fit of Γ(CL) with Equation 5; details: partners not purified
T4 construct: lipoprotein-receptor related protein 6 (LRP6), human, expressed from the endogenous locus of NCI-H1703 cells; Untagged LRP6 from the unedited allele is also present; receptor density 21 ± 15 per µm^2; source: NCI-H1703, CRISPR/Cas9 edited at the endogenous LRP6 locus (exon 23), heterozygous clone, on live cells; not shown: tdTomato (after the linker AS from the NheI site), C-terminal, kept
T4 sequence (O75581 20-1613): as above

[9] = target: T5, endogenously tagged LRP6-mCherry in CRISPR/Cas9 edited NCI-H1703 cells (human (endogenous in NCI-H1703), UniProt O75581 20-1613); test: as above; details: partners not purified
T5 construct: lipoprotein-receptor related protein 6 (LRP6), human, expressed from the endogenous locus of NCI-H1703 cells; Untagged LRP6 from the unedited allele is also present; receptor density 18 ± 9 per µm^2; source: NCI-H1703, CRISPR/Cas9 edited at the endogenous LRP6 locus (exon 23), heterozygous clone, on live cells
T5 sequence (O75581 20-1613): as above

[10] = target: T3, LRP6-mCherry, transiently expressed in …; test: dual-color axial line-scanning fluorescence cross-correlation spectroscopy (axial lsFCS); live HEK293T cells transiently expressing the receptor, ligand in conditioned medium at varied concentrations (0.01-220 nM), 37°C, 5% CO2, 60 s scans, fit of Γ(CL) with Equation 5; details: partners not purified
[11] = target: T3, LRP6-mCherry, transiently expressed in …; test: time-lapse spinning disk confocal imaging of ligand fluorescence on the cell membrane; dissociation after two washing steps, frames every 300 s for up to 3 hr, average of 50 cells; kon from a regression of apparent rate coefficients at 3.5 and 7 nM with this koff fixed; 37°C, 5% CO2; details: partners not purified
[12] = target: T6, LRP6-tdTomato, transiently expressed in NCI-H1703 cells (human, UniProt O75581 20-1613); test: dual-color axial line-scanning fluorescence cross-correlation spectroscopy (axial lsFCS); live NCI-H1703 cells transiently expressing the receptor (xKremen2-mCherry without or with unlabeled LRP6; apparent affinity with LRP6), ligand in conditioned medium at varied concentrations, 37°C, 5% CO2, 60 s scans, fit of Γ(CL) with Equation 5; details: partners not purified
T6 construct: lipoprotein-receptor related protein 6 (LRP6), human; pCS2+hLRP6-tdTomato, made by replacing the mCherry ORF of pCS2+hLRP6-mCherry; Receptor density 106 ± 52 per µm^2; also called hLRP6-tdTomato; source: NCI-H1703, transiently transfected (pCS2+hLRP6-tdTomato, with MesD 1:6), on live cells; not shown: tdTomato, C-terminal, kept
T6 sequence (O75581 20-1613): as above

[13] = target: T2, LRP6-mCherry, stably expressed in …; test: dual-color axial line-scanning fluorescence cross-correlation spectroscopy (axial lsFCS); live NCI-H1703 cells stably expressing LRP6-mCherry, ligand in conditioned medium at varied concentrations, 37°C, 5% CO2, 60 s scans, with background and photobleaching correction, fit of Γ(CL) with Equation 5; details: partners not purified; remark: listed apart in the source

bound fraction of LRP6 receptors FR, corrected assuming an eGFP maturation yield of 0.9 [1]: 0.26
bound fraction of xKremen2 receptors FG, corrected assuming an mCherry maturation yield of 0.5 [1]: 0.18
percent of LRP6 receptors co-diffusing with xKremen2 [1]: 25%
percent of xKremen2 receptors co-diffusing with LRP6 [1]: 15%
Molecule: (Xenopus laevis) xKremen2-eGFP (receptor)

Kd [2]: 220 ± 20 pM
Kd [3]: 80 ± 10 pM
Kd [4]: 100 ± 20 pM
Kd [5]: 540 pM
Kd [6]: 10300 pM
Kd [7]: 2600 ± 100 pM
koff [7]: 0.0013 s⁻¹
kon [7]: 500000 M⁻¹ s⁻¹
Kd [8]: 100 ± 20 pM
Kd [9]: 90 ± 10 pM
Kd [10]: 490 ± 90 pM
Kd [11]: 400 ± 100 pM
koff [11]: 0.00026 s⁻¹
kon [11]: 670000 M⁻¹ s⁻¹
Kd [12]: 220 ± 30 pM
B1: human Dickkopf1 fused to eGFP (DKK1-eGFP) (ligand, UniProt O94907 32-266, looked up)
chain: TLNSVLNSNAIKNLPPPLGGAAGHPGSAVSAAPGILYPGGNKYQTIDNYQPYPCAEDEECGTDEYCASPTRGGDAGVQICLACRKRRKRCMRHAMCCPGNYCKNGICVSSDQNHFRGEIEETITESFGNDHSTLDGYSRRTTLSSKMYHTKGQEGSVCLRSSDCASGLCCARHFWSKICKPVLKEGQVCTKHRRKGSHGLEIFQRCYCGEGLSCRIQKDHHQASNSSRLHTCQRH
notes: Dickkopf1 (DKK1), human; also called hDKK1-eGFP

Kd [10]: 460 ± 90 pM
B2: human Dickkopf1 fused to eGFP and a SNAP-tag domain (DKK1-eGFP-SNAP) (ligand, UniProt O94907 32-266, looked up)
chain: TLNSVLNSNAIKNLPPPLGGAAGHPGSAVSAAPGILYPGGNKYQTIDNYQPYPCAEDEECGTDEYCASPTRGGDAGVQICLACRKRRKRCMRHAMCCPGNYCKNGICVSSDQNHFRGEIEETITESFGNDHSTLDGYSRRTTLSSKMYHTKGQEGSVCLRSSDCASGLCCARHFWSKICKPVLKEGQVCTKHRRKGSHGLEIFQRCYCGEGLSCRIQKDHHQASNSSRLHTCQRH
notes: Dickkopf1 (DKK1), human; made from pCS2+hDKK1-eGFP by adding a linker and the SNAP-tag gene; SNAP-tag domain is 19.4 kDa; also called hDKK1-eGFP-SNAP; source: conditioned medium

Kd [13]: 260 ± 40 pM
B3: human Dickkopf2 fused to eGFP (DKK2-eGFP) (ligand, UniProt Q9UBU2 34-259, looked up)
chain: KLNSIKSSLGGETPGQAANRSAGMYQGLAFGGSKKGKNLGQAYPCSSDKECEVGRYCHSPHQGSSACMVCRRKKKRCHRDGMCCPSTRCNNGICIPVTESILTPHIPALDGTRHRDRNHGHYSNHDLGWQNLGRPHTKMSHIKGHEGDPCLRSSDCIEGFCCARHFWTKICKPVLHQGEVCTKQRKKGSHGLEIFQRCDCAKGLSCKVWKDATYSSKARLHVCQKI
notes: Dickkopf2 (DKK2), human; also called hDKK2-eGFP
